# In the supplement of paper PMC6755084:
# B1: F1*; the commonest letter at each place (parent)
# chain: GAGACCGCAACTGAAAAGTTGTTATCACTTGTCGTAAGACACTTTGGATGGGTTGAAGTTCTGCACGTAGAAGCAAAAGGC
# Variants of: B1
# Experiment: fraction ligated after 30 min (ligated reads / total reads); higher = more ligase activity
# Conditions: with F1*sub RNA substrate (template-directed ligation), 42 °C
# In short: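 Ligase ribozyme variants were made from oligo-pool templates by PCR amplification, T7 transcription and gel purification. After gel separation, ligated and unligated bands were reverse transcribed with barcoded primers and sequenced on a MiSeq, with core bases filtered at quality ≥20. The fraction ligated for each variant was the number of ligated reads divided by total reads.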
row,Variant,fraction ligated
1,T44C G46T,0.787
2,T44C G46C,0.8
3,T44C G46A,0.778
4,T43C G46A,0.789
5,T43C G46T,0.776
6,T43C G46C,0.791
7,T44C T45A,0.768
8,T44C T45C,0.747
9,T44C T45G,0.191
10,G47C G50T,0.202
11,G47C G50C,0.0335
12,G47C G50A,0.059
13,T45G T49G,0.0893
14,T45G T49A,0.0341
15,T45G T49C,0.0508
16,G46C G47C,0.0992
17,G46C G47T,0.0897
18,G46C G47A,0.798
19,T44G G55T,0.795
20,T44G G55A,0.842
21,T44G G55C,0.729

row,Variant,fraction ligated
1,T45G A57T,0.8
2,T45G A57C,0.791
3,T45G A57G,0.769
4,G46T A56T,0.237
5,G46T A56G,0.187
6,G46T A56C,0.136
7,T43C G55A,0.803
8,T43C G55C,0.571
9,T43C G55T,0.817
10,G46C G55T,0.674
11,G46C G55C,0.171
12,G46C G55A,0.804
13,T45G A56T,0.79
14,T45G A56C,0.187
15,T45G A56G,0.775
16,T43A T45G,0.43
17,T43A T45A,0.725
18,T43A T45C,0.696
19,G46C A57G,0.712
20,G46C A57C,0.778
21,G46C A57T,0.76

row,Variant,fraction ligated
1,T43C T44C,0.781
2,T43C T44A,0.833
3,T43C T44G,0.836
4,T45A A56C,0.782
5,T45A A56T,0.793
6,T45A A56G,0.768
7,T43C A57C,0.733
8,T43C A57G,0.785
9,T43C A57T,0.79
10,G46C A56G,0.315
11,G46C A56C,0.324
12,G46C A56T,0.447
13,G46C G50T,0.165
14,G46C G50A,0.0524
15,G46C G50C,0.0426
16,G46T A57T,0.754
17,G46T A57G,0.795
18,G46T A57C,0.726
19,T44A T49C,0.737
20,T44A T49G,0.785
21,T44A T49A,0.779

row,Variant,fraction ligated
1,T45C A57C,0.785
2,T45C A57G,0.812
3,T45C A57T,0.777
4,T45C G46T,0.263
5,T45C G46A,0.127
6,T45C G46C,0.268
7,T45G A48G,0.0747
8,T45G A48C,0.122
9,T45G A48T,0.187
10,T45A A48T,0.0749
11,T45A A48G,0.261
12,T45A A48C,0.23
13,T44A G50T,0.758
14,T44A G50C,0.442
15,T44A G50A,0.643
16,T43C G47C,0.276
17,T43C G47T,0.446
18,T43C G47A,0.767
19,T43C G50C,0.111
20,T43C G50A,0.187
21,T43C G50T,0.441
